IntAct's records for PubMed 32296183

B1: Ceroid-lipofuscinosis neuronal protein 6 (Homo sapiens), Q9NWW5 (parent)
chain: MEATRRRQHLGATGGPGAQLGASFLQARHGSVSADEAARTAPFHLDLWFYFTLQNWVLDFGRPIAMLVFPLEWFPLNKPSVGDYFHMAYNVITPFLLLKLIERSPRTLPRSITYVSIIIFIMGASIHLVGDSVNHRLLFSGYQHHLSVRENPIIKNLKPETLIDSFELLYYYDEYLGHCMWYIPFFLILFMYFSGCFTASKAESLIPGPALLLVAPSGLYYWYLVTEGQIFILFIFTFFAMLALVLHQKRKRLFLDSNGLFLFSSFALTLLLVALWVAWLWNDPVLRKKYPGVIYVPEPWAFYTLHVSSRH
partner: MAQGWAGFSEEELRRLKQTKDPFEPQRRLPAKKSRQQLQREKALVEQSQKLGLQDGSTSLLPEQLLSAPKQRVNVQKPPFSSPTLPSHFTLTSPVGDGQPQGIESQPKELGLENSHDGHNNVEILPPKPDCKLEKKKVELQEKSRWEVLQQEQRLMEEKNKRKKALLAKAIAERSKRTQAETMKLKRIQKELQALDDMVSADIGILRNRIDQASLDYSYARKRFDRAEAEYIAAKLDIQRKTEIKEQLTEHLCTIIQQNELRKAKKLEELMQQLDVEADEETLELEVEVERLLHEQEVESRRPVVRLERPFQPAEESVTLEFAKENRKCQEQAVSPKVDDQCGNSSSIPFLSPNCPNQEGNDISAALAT
B2: Golgi SNAP receptor complex member 2 (Homo sapiens), O14653 (parent)
chain: MDPLFQQTHKQVHEIQSCMGRLETADKQSVHIVENEIQASIDQIFSRLERLEILSSKEPPNKRQNARLRVDQLKYDVQHLQTALRNFQHRRHAREQQERQREELLSRTFTTNDSDTTIPMDESLQFNSSLQKVHNGMDDLILDGHNILDGLRTQRLTLKGTQKKILDIANMLGLSNTVMRLIEKRAFQDKYFMIGGMLLTCVVMFLVVQYLT
partner: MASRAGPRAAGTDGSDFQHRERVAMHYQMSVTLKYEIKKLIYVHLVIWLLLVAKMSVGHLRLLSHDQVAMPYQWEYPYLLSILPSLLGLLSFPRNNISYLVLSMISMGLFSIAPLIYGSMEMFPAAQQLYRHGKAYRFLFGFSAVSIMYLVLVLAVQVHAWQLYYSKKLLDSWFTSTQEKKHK
B3: Very-long-chain enoyl-CoA reductase (Homo sapiens), Q9NZ01 (parent)
chain: MKHYEVEILDAKTREKLCFLDKVEPHATIAEIKNLFTKTHPQWYPARQSLRLDPKGKSLKDEDVLQKLPVGTTATLYFRDLGAQISWVTVFLTEYAGPLFIYLLFYFRVPFIYGHKYDFTSSRHTVVHLACICHSFHYIKRLLETLFVHRFSHGTMPLRNIFKNCTYYWGFAAWMAYYINHPLYTPPTYGAQQVKLALAIFVICQLGNFSIHMALRDLRPAGSKTRKIPYPTKNPFTWLFLLVSCPNYTYEVGSWIGFAIMTQCLPVALFSLVGFTQMTIWAKGKHRSYLKEFRDYPPLRMPIIPFLL
partner: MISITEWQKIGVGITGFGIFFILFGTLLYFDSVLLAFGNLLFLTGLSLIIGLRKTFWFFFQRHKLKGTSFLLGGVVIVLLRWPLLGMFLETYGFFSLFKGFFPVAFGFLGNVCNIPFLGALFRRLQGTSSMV
B4: Catenin alpha-3 (Homo sapiens), Q9UI47-2 (parent)
chain: MSAETPITLNIDPQDLQVQTFTVEKLLEPLIIQVTTLVNCPQNPSSRKKGRSKRASVLLASVEEATWNLLDKGEKIAQEATVLKDELTASLEEVRKESEALKVSAERFTDDPCFLPKREAVVQAARALLAAVTRLLILADMIDVMCLLQHVSAFQRTFESLKNVANKSDLQKTYQKLGKELENLDYLAFKRQQDLKSPNQRDEIAGARASLKENSPLLHSICSACLEHSDVASLKASKDTVCEEIQNALNVISNASQGIQNMTTPPEPQAATLGSALDELENLIVLNPLTVTEEEIRPSLEKRLEAIISGAALLADSSCTRDLHRERIIAECNAIRQALQDLLSEYMNNAGKKERSNTLNIALDNMCKKTRDLRRQLRKAIIDHVSDSFLDTTVPLLVLIEAAKNGREKEIKEYAAIFHEHTSRLVEVANLACSMSTNEDGIKIVKIAANHLETLCPQIINAALALAARPKSQAVKNTMEMYKRTWENHIHVLTEAVDDITSIDDFLAVSGMFLFF
partner: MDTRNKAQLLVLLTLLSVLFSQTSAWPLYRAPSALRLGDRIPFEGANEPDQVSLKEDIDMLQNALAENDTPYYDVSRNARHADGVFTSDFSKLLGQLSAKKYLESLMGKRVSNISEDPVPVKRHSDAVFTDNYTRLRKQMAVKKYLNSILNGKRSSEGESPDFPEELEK
B5: Ceroid-lipofuscinosis neuronal protein 6 (Homo sapiens), Q9NWW5 (parent)
chain: B1 chain
partner: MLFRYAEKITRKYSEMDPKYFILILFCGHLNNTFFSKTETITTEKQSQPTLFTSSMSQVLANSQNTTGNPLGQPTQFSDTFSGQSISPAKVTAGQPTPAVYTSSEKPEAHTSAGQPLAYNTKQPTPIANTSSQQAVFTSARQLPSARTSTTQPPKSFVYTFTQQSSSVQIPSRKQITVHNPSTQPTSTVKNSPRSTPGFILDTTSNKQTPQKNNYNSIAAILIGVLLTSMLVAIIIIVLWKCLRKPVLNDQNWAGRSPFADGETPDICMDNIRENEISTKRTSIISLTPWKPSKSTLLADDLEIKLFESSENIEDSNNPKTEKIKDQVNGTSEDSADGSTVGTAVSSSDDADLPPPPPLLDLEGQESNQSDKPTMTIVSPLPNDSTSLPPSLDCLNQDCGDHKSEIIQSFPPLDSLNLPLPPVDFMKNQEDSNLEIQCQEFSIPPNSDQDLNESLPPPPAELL
B6: Dolichol kinase (Homo sapiens), Q9UPQ8 (parent)
chain: MTRECPSPAPGPGAPLSGSVLAEAAVVFAVVLSIHATVWDRYSWCAVALAVQAFYVQYKWDRLLQQGSAVFQFRMSANSGLLPASMVMPLLGLVMKERCQTAGNPFFERFGIVVAATGMAVALFSSVLALGITRPVPTNTCVILGLAGGVIIYIMKHSLSVGEVIEVLEVLLIFVYLNMILLYLLPRCFTPGEALLVLGGISFVLNQLIKRSLTLVESQGDPVDFFLLVVVVGMVLMGIFFSTLFVFMDSGTWASSIFFHLMTCVLSLGVVLPWLHRLIRRNPLLWLLQFLFQTDTRIYLLAYWSLLATLACLVVLYQNAKRSSSESKKHQAPTIARKYFHLIVVATYIPGIIFDRPLLYVAATVCLAVFIFLEYVRYFRIKPLGHTLRSFLSLFLDERDSGPLILTHIYLLLGMSLPIWLIPRPCTQKGSLGGARALVPYAGVLAVGVGDTVASIFGSTMGEIRWPGTKKTFEGTMTSIFAQIISVALILIFDSGVDLNYSYAWILGSISTVSLLEAYTTQIDNLLLPLYLLILLMA
partner: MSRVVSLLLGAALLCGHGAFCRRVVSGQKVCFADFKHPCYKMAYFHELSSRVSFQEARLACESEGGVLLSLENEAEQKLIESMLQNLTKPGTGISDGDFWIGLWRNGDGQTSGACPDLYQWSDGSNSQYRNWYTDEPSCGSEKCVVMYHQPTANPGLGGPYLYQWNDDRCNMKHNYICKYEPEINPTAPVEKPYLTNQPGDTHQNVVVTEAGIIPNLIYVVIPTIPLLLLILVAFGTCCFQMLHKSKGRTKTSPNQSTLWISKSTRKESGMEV
B7: Golgi SNAP receptor complex member 2 (Homo sapiens), O14653 (parent)
chain: B2 chain
partner: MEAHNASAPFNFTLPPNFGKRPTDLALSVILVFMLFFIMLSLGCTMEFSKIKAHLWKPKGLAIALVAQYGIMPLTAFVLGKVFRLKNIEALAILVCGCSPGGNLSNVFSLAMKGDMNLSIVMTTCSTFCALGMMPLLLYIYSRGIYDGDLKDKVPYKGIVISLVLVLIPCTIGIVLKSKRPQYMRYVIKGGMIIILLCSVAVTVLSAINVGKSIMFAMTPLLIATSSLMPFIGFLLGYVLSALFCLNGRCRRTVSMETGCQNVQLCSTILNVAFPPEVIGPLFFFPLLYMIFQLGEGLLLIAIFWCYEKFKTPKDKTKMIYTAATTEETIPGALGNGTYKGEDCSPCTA
B8: Golgi SNAP receptor complex member 2 (Homo sapiens), O14653 (parent)
chain: B2 chain
partner: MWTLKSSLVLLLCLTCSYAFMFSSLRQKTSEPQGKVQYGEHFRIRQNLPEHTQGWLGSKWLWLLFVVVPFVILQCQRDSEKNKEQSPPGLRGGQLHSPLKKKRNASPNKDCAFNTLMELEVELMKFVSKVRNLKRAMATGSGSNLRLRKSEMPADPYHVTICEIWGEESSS
B9: Very-long-chain enoyl-CoA reductase (Homo sapiens), Q9NZ01 (parent)
chain: B3 chain
partner: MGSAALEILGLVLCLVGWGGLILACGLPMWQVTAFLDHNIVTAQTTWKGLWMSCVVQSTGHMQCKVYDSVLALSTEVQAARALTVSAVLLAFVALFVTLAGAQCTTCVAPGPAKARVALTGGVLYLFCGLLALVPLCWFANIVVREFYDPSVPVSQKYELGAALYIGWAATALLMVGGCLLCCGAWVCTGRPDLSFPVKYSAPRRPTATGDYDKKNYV

Variants of: B1
Conditions: with gorab_human GORAB

effect of a mutation on the interaction | Variant
with no effect | R6T

Variants of: B2
Conditions: with jagn1_human JAGN1, Q8N5M9

effect of a mutation on the interaction | Variant
with no effect | G144W

Variants of: B3
Conditions: with got1a_human GOLT1A

effect of a mutation on the interaction | Variant
with no effect | P182L

Variants of: B4
Conditions: with VIP

effect of a mutation on the interaction | Variant
disrupting interaction strength | V94D

Variants of: B5
Conditions: with EVI2B

effect of a mutation on the interaction | Variant
with no effect | L47F
with no effect | G123D
with no effect | R6T

Variants of: B6
Conditions: with chodl_human CHODL

effect of a mutation on the interaction | Variant
disrupting interaction strength | Y441S

Variants of: B7
Conditions: with ntcp_human SLC10A1, Q14973

effect of a mutation on the interaction | Variant
with no effect | G144W

Variants of: B8
Conditions: with FAM209A

effect of a mutation on the interaction | Variant
with no effect | G144W

Variants of: B9
Conditions: with cld5_human CLDN5, O00501

effect of a mutation on the interaction | Variant
disrupting interaction strength | P182L
